Laboratory results: patent US20250295796A1, “CELL PENETRATING POLYPEPTIDES (CPPS) AND THEIR USE IN HUMAN THERAPY” (RDP PHARMA AG, priority 2021, published 2025)

Assays:
[1] = test system: M5076 ovarian reticulum sarcoma tumor cell line; assay: M5076 artificial hepatic metastasis model, i.v. route
[2] = test system: human colon carcinoma with null p53 (HCT116 p53−/−) xenograft; assay: HCT116 p53-/- xenograft, CROMOC36 versus nuclease impaired CROMOC60; format: in vivo, mouse; conditions: s.c. 4 mg/kg on days 0, 1, 2, 3, 6, 7, 8, 9, 10, 20, 22, 24
Method: FIG. 7: HCT116 p53−/− human colon carcinoma xenograft. Treatment on advanced tumors (volume >50 mm^3). Dose: CROMOC36 4 mg/kg; CROMOC60 4 mg/kg. Treatment: s.c. administration on day 0, 1, 2, 3, 6, 7, 8, 9, 10, 20, 22, 24.
A study was conducted to test the antitumor efficacy of CROMOC36 on an advanced human colon carcinoma with null p53 (HCT116 p53−/−) xenograft model and compare it to a vehicle or a nuclease impaired version CROMOC60 treatment group. CROMOC60 is no more catalytically active as a nuclease but is able to be transported to the nucleus of a cell. This study was also designed to proof that the active principle of the tumor growth inhibiting activity of CROMOC is the nuclease activity in vivo. CROMOC36 and CROMOC60 were both administered subcutaneously (s.c.) at 4 mg/kg dose on the days 0, 1, 2, 3, 6, 7, 8, 9, 10, 20, 22, 24. […] This also proofs that CROMOC36 can serve as a valid DNA DSB reagent.

[3] = test system: HEPG2; assay: Monolayer assay, 96h treatment, HEPG2; format: cell-based, human; conditions: HEPG2, 96h treatment
Method: Monolayer Assay Propidium Iodid (PI). Cells were harvested from exponential phase cultures, counted and depending on the cell line 3.000 to 20.000 cells were plated in 96-well flat-bottom microtiter plates After a 24 h recovery period to allow cells to resume exponential growth, 10 μl of culture medium (four control wells/plate) or culture medium with the test compound were added by a liquid handling robotic system and treatment continued for four days. Compounds were applied in half-log increments at 10 concentrations in duplicate. Three independent experiments were performed. Cells were then washed with 200 μl PBS to remove dead cells followed by addition of 200 μl of a solution containing 7 μg/ml propidium iodide (PI) and 0.1% (v/v) Triton X-100. After an incubation period of 1-2 h at room temperature, fluorescence (FU) was measured using the Cytofluor 4000 microplate reader (excitation λ=530 nm, emission λ=620 nm) to quantify the amount of attached viable cells. Concentrations required for 50% inhibition of cell growth (IC50) were calculated by non-linear regression (log[conc. of inhibitor]versus response (% T/C)) using the analysis software GraphPad Prism®, Prism 5 for windows, version 5.01 (GraphPad Software Inc., CA).
CROMOC36—in vitro activity Human hepatocellular carcinoma cell lines IC50 values of CROMOC36 and Sorafenib, 96h treatment. […]

[4] = test system: murine Lewis lung carcinoma; assay: Lewis lung carcinoma (LLC) model, primary tumor growth and metastasis
Method: The efficacy of CROMOC36 on the Lewis lung carcinoma (LLC) model, was selected for testing the activity of CROMOC36 against primary tumor growth and metastasis formation. CROMOC36 was tested as a single agent and in combination with Cyclophosphamide (CYPP). In addition, single-agent CYPP was used as a reference compound, allowing comparison of the efficacy of CROMOC36 with a commonly used antitumor agent (summarized in FIG. 9).

[5] = test system: 4T1 breast tumor lung metastasis; assay: Organ-distribution in 4T1 breast tumor lung metastasis mouse model; conditions: four hours after i.v. 8 mg/kg, ex vivo total photon flux
Method: In vivo organ-distribution of CROMOC36-AF680 molecules in tumor containing mice. First orthotopic allograft 4T1 breast tumor lung metastasis mouse model was analyzed for CROMOC-AF680 distribution in vivo (FIG. 19A). Four hours after i.v. injection of 8 mg/kg of the CROMOC molecule labeled with the AF680 fluorescent dye, lungs containing 4T1cell metastasis were isolated and fluorescence intensity was assessed ex vivo (total photon flux shown on X-axis logarithmic scale).

[6] = test system: immortalized non-tumor cells; assay: SRB assay, cytotoxicity to non-tumor cells versus cancer cells
[7] = CROMOC36 4 mg/kg, q2dx5, single agent
[8] = combination of CROMOC36 and CYPP

B1: CROMOC36: single chain PvuII endonuclease fused at its C-terminus to DDM36, PEGylated final product used in the Examples (protein)
chain: MSHPDLNKLLELWPHIQEYQDLALKHGINDIFQDNGGKLLQVLLITGLTVLPGREGNDAVDNAGQEYELKSINIDLTKGFSTHHHMNPVIIAKYRQVPWIFAIYRGIAIEAIYRLEPKDLEFYYDKWERKWYSDGHKDINNPKIPVKYVMEHGTKIYGSGGSGGSSHPDLNKLLELWPHIQEYQDLALKHGINDIFQDNGGKLLQVLLITGLTVLPGREGNDAVDNAGQEYELKSINIDLTKGFSTHHHMNPVIIAKYRQVPWIFAIYRGIAIEAIYRLEPKDLEFYYDKWERKWYSDGHKDINNPKIPVKYVMEHGTKIYGNSGSGKKKKKGKGSGLGSGKKKDPLGSGLGSGKKKKKGKGSGLGSGKKKDPLGST
modifications: PEGylated; peptide, CROMOC36
- % ILS (mean survival time versus control group) ([1]; CROMOC36 16 mg/kg i.v. q7dx3, Doxorubicin 6 mg/kg q4dx3 (MTD)): 68%
- antimetastatic activity in Liver M5076 allograft ([1]; i.v. route, 16 mg/kg q7dx3): strong antimetastatic activity
- progression of HCT116 p53−/− human colon carcinoma as compared to vehicle control [2]: significantly inhibited
- IC50 [3]: 13.7 nM
- inhibition of total number of metastases ([4]; CROMOC36 0.4 mg/kg): 24%
- inhibition of total number of metastases ([4]; CROMOC36 4 mg/kg): 66%
- reduction of number of large metastases [4, 7]: 69.1%
- reduction of number of medium metastases [4, 7]: 49.2%
- reduction of number of small metastases [4, 7]: 61.2%
- tolerability ([4]; LLC model): No major issues
- inhibition of number of metastases ([4]; combination of CROMOC36 (4 mg/kg) and CYPP (180 mg/kg)): 81%
- final decrease in body weight (BW) compared to the start of the experiment [4, 8]: 3.7%
- reduction of number of large metastases [4, 8]: 89.2%
- reduction of number of medium metastases [4, 8]: 66.7%
- reduction of number of small metastases [4, 8]: 81.1%
- tumor growth inhibition (TI), primary tumor ([4]; simultaneous combination of CROMOC36 and CYPP): 85.6%
- tumor growth inhibition (TI), primary tumor ([4]; single agent, CROMOC36 s.c. q2dx5): 15.2%
- enrichment in lungs of breast tumor metastasis containing animals versus tumor free animals [5]: more than 10.000 ×
- times less cytotoxic to immortalized non-tumor cells than to cancer cells [6]: 40->100
